B1: Chirp9 (peptide)
chain: KEGYIVDYHTGCKYTCAKLGDNDYCVRECRLRYYQSAHGYCYAFACWCTHLYEAAVVWPLPNKRCK-NH2
modifications: disulfide (positions not given here); also: four disulfide bridges, pairing not given here
B2: Chirp7 (peptide)
chain: KEGYLVNHSTGCKYECFKLGDNDYCLRECRQQYGKGAGGYCYAFGCWCTHLYEQAVVWPLPKKTCN-NH2
modifications: disulfide (positions not given here); also: four disulfide bridges, pairing not given here

Key:
Assay type in all cases: cell-based, human
hNav 1.1 = test: Patch-clamp macroscopic sodium currents, hNav1.1 in HEK cells; conditions: 200 nM toxin, mean ± SE of 5 cells (3–5 cells); for I/Imax (residual peak current): Chirp9 value marked * (p<0.05 paired t-test); for slope of activation after toxin: control 7.7 ± 0.7 (Chirp7 cells), 7.2 ± 0.3 (Chirp9 cells); for V0.5 of activation after toxin: control -24.8 ± 0.8 (Chirp7 cells, toxin value marked *), -22.8 ± 0.3 (Chirp9 cells), * = p<0.05 paired t-test; for slope of inactivation after toxin / V0.5 of inactivation after toxin: steady-state inactivation; for slope of inactivation after toxin: control 6.7 ± 0.1 (Chirp7 cells), 6.8 ± 0.2 (Chirp9 cells); for V0.5 of inactivation after toxin: control -59.9 ± 0.2 (Chirp7 cells), -59 ± 0.2 (Chirp9 cells)
Method: (§1) Recordings of macroscopic currents from sodium channels. Human voltage-gated sodium channels (hNav 1.1, hNav 1.2 and hNa 1.6) were stably expressed in HEK cells. Cells were maintained at 37 ◦C with 5% CO2 in a humidified atmosphere. The growth medium consisted of high-glucose Dulbecco’s Modified Eagle Medium (DMEM, Sigma Aldrich, Naucalpan de Juarez, Estado de Mexico, Mexico), supplemented with 10% Fetal Bovine Serum (ByProductos, Guadalajara, Jalisco, Mexico) and 500 μg/mL of the antibiotic G418 (Sigma Aldrich, Naucalpan de Juarez, Estado de Mexico, Mexico). The extracellular solution was composed of (in mM): 130 NaCl, 5 KCl, 2 CaCl2, 2 MgCl2, 10 HEPES, and 5 glucose, with the pH adjusted to 7.3 using NaOH. The intracellular solution contained (in mM): 105 CsF, 27 CsCl, 5 NaCl, 2 MgCl2, 10 EGTA, and 10 HEPES, with the pH also adjusted to 7.3 with CsOH. Solutions were delivered to the patched cell via an active perfusion system connected to a variable-speed syringe pump (Model A-99, Razel Scientific Instruments, Fairfax, VT, USA), with a perfusion rate of approximately 1 μL/s. Patch pipettes were made from borosilicate glass capillaries (Warner Instruments, Hamden, CT, USA) using a vertical puller (Model P-30, Sutter Instrument, Novato, CA, USA). The pipettes were filled with the internal solution and had resistance ranging from 1.5 and 3 MΩ. Sodium currents were elicited by 100 ms depolarization ranging from −110 to 30 mV in 10 mV steps, followed by a fully activating step at −10 mV for 50 ms. To better appreciate the effects of scorpion β-sodium toxins, channels were primed by means of a 5 ms depolarization at 50 mV, applied 50 ms before the depolarization steps, as previously described in Cestele et al. 1998 [17]. To ensure complete recovery from inactivation, cells were maintained at −120 mV for 280 ms before each step, while holding potential was set at −100 mV. Currents were acquired using a MultiClamp 700A amplifier and a DigiData 1440A digitizer (Molecular Devices, CA, USA).
(§2) For the activation curve, conductance (G) was calculated from current (I) elicited during depolarization steps by means of the equation G = I/(Vm − ENa), where I is the current elicited at membrane potential Vm, and ENa is the reversal potential of Na^+ ions, calculated experimentally for each cell. Conductance was normalized to its maximal level and plotted against the corresponding membrane potential. For the steady-state inactivation curve, currents elicited at −10 mV (after preconditioning depolarization from −110 to 30 mV) were plotted against the preconditioning potentials. Data from activation and from steady-state inactivation were fitted using a Boltzmann equation: y = A2 + (A1 − A2)/(1 + exp((x − x0)/dx)) where A1 is the initial value, A2 is the final value, x0 is the potential of half-activation (or half-inactivation) and dx is the slope. […]
(§3) Figure S1. Recordings of macroscopic currents from sodium channels. Sodium currents in B) were elicited by the stimulation protocol depicted in A): currents were elicited by 100 ms depolarization ranging from -110 to 30 mV in 10 mV steps, followed by a fully activating step at -10 mV for 50 ms.
(§4) A 5 ms depolarization at 50 mV was applied 50 ms before the depolarization steps to primed the channels. Peak currents obtained during the step depolarization from -110 to 30 mV (C and D, black circle in control and open circle after toxin application) were used to calculate the conductance and construct the activation curves. Currents recorded during the step at -10 mV (C and D, black square in control and open square for the toxin), were used to construct the inactivation curves. […]

hNav 1.2 = test: Patch-clamp macroscopic sodium currents, hNav1.2 in HEK cells; conditions: 200 nM toxin; for I/Imax (residual peak current) / slope of activation after toxin / V0.5 of activation after toxin / slope of inactivation after toxin / V0.5 of inactivation after toxin: mean ± SE of 5 cells (3–5 cells); for slope of activation after toxin: control 5.4± 0.3 (Chirp7 cells), 7.6 ± 0.4 (Chirp9 cells); for slope of activation after toxin / slope of inactivation after toxin / V0.5 of inactivation after toxin: Chirp9 value marked * (p<0.05); for V0.5 of activation after toxin: control -21.1 ± 0.4 (Chirp7 cells), -26.5 ± 0.5 (Chirp9 cells); for slope of inactivation after toxin / V0.5 of inactivation after toxin: steady-state inactivation; for slope of inactivation after toxin: control 6 ± 0.2 (Chirp7 cells), 5.6 ± 0.2 (Chirp9 cells); for V0.5 of inactivation after toxin: control -56.1 ± 0.2 (Chirp7 cells), -55.5 ± 0.3 (Chirp9 cells)
Method: as §1, §2, §3, §4

hNav 1.6 = test: Patch-clamp macroscopic sodium currents, hNav1.6 in HEK cells; conditions: 200 nM toxin; for A: fraction of channels bound to the toxin: activation; for A: fraction of channels bound to the toxin / slope of activation after toxin / V0.5 of activation after toxin: sum of two Boltzmann fit; for A: fraction of channels bound to the toxin / I/Imax (residual peak current) / slope of inactivation after toxin / V0.5 of inactivation after toxin / slope of activation after toxin / V0.5 of activation after toxin: mean ± SE of 5 cells (3–5 cells); for I/Imax (residual peak current): both values marked * (p<0.05 paired t-test); for slope of inactivation after toxin / V0.5 of inactivation after toxin: steady-state inactivation; for slope of inactivation after toxin: control 6.6 ± 0.3 (Chirp7 cells), 6.3 ± 0.1 (Chirp9 cells); for V0.5 of inactivation after toxin: control -55.8 ± 0.3 (Chirp7 cells), -65.0 ± 0.1 (Chirp9 cells); for slope of activation after toxin: control 5.6 ± 0.22 (Chirp7 cells), 7.0 ± 0.4 (Chirp9 cells); for slope of activation after toxin / V0.5 of activation after toxin: both toxin values marked * (p<0.05); for V0.5 of activation after toxin: toxin-bound component, control -22.8 ± 0.3 (Chirp7 cells), -22.5 ± 0.3 (Chirp9 cells)
Method: as §1
For the activation curve, conductance (G) was calculated from current (I) elicited during depolarization steps by means of the equation G = I/(Vm − ENa), where I is the current elicited at membrane potential Vm, and ENa is the reversal potential of Na^+ ions, calculated experimentally for each cell. Conductance was normalized to its maximal level and plotted against the corresponding membrane potential. For the steady-state inactivation curve, currents elicited at −10 mV (after preconditioning depolarization from −110 to 30 mV) were plotted against the preconditioning potentials. Data from activation and from steady-state inactivation were fitted using a Boltzmann equation: y = A2 + (A1 − A2)/(1 + exp((x − x0)/dx)) where A1 is the initial value, A2 is the final value, x0 is the potential of half-activation (or half-inactivation) and dx is the slope.
For hNav 1.6 currents, activation data after toxin exposure were fitted using the sum of two Boltzmann equations: y = y0 + A (frac/(1 + exp((x − x01)/k1)) + (1 − frac)/(1 + exp((x − x02)/k2))) where the sum is 1, x01 and dx1 are the same as under control conditions, and “frac” represents the fraction of channels bound to the toxin. Data are presented as means ± standard error (SE). The paired sample t-test (also known as the dependent samples t-test) was applied by comparing, for each individual cell recorded, the electrophysiological parameter of interest (e.g., peak current, V½ of activation or inactivation) before toxin application and after toxin application. Significant difference was accepted with a confidence level “p” set at 0.05. […]
Figure S1. Recordings of macroscopic currents from sodium channels. Sodium currents in B) were
elicited by the stimulation protocol depicted in A): currents were elicited by 100 ms depolarization
ranging from -110 to 30 mV in 10 mV steps, followed by a fully activating step at -10 mV for 50 ms. […]

| Molecule | I/Imax (residual peak current) (hNav 1.1) | slope of activation after toxin (hNav 1.1) | V0.5 of activation after toxin (hNav 1.1) [mV] | slope of inactivation after toxin (hNav 1.1) | V0.5 of inactivation after toxin (hNav 1.1) [mV] | effect on inactivation (hNav 1.2) | I/Imax (residual peak current) (hNav 1.2) | slope of activation after toxin (hNav 1.2) | V0.5 of activation after toxin (hNav 1.2) [mV] | slope of inactivation after toxin (hNav 1.2) | V0.5 of inactivation after toxin (hNav 1.2) [mV] | effect on activation curve (hNav 1.6) | effect on peak current (hNav 1.6) | A: fraction of channels bound to the toxin (hNav 1.6) | I/Imax (residual peak current) (hNav 1.6) | effect on inactivation kinetic (hNav 1.6; residual current at potentials greater than −30 mV) | slope of inactivation after toxin (hNav 1.6) | V0.5 of inactivation after toxin (hNav 1.6) [mV] | slope of activation after toxin (hNav 1.6) | V0.5 of activation after toxin (hNav 1.6) [mV] |
| --- | --- | --- | --- | --- | --- | --- | --- | --- | --- | --- | --- | --- | --- | --- | --- | --- | --- | --- | --- | --- |
| B1 | 0.94 ± 0.02 | 8.2 ± 0.2 | -23.6 ± 0.2 | 7.3 ± 0.2 | -60.1 ± 0.2 | shifted inactivation to more negative potential | 0.85 ± 0.07 | 10.8 ± 0.4 | -26.8 ± 0.5 | 7.6 ± 0.4 | -61.8 ± 0.4 | leftward shift in the activation curves | reduced the peak current | 1 ± 0.1 | 0.29 ± 0.03 | slows down the inactivation kinetic by promoting a residual current | 6.9 ± 0.4 | -67.1 ± 0.5 | 15.5 ± 0.9 | -40.9 ± 0.2 |
| B2 | 0.98±0.02 | 6.9 ± 0.5 | -26.9 ± 0.6 | 6.4 ± 0.1 | -60.9 ± 0.2 |  | 1 ± 0.02 | 5.9 ± 0.3 | -22 ± 0.4 | 6.2 ± 0.2 | -56.9 ± 0.2 | leftward shift in the activation curves | reduced the peak current | 0.34 ± 0.04 | 0.88 ± 0.03 |  | 7.2 ± 0.4 | -58 ± 0.4 | 9.4 ± 1.9 | -52.5 ± 3.4 |
